Source: the RNAGym collection of RNA variant scans (doi:10.1093/nar/gkz1192)

B1: CPEB3 Ribozyme (parent)
chain: UAACAGGGGGCCACAGCAGAAGCGUUCACGUCGCAGCCCCUGUCAGAUUCUGGUGAAUCUGCGAAUUCUGCUGUAUAUCUC

Variants of: B1
Test: self-cleavage, relative activity (ratio to wild type); higher = more cleavage; in vitro, sequencing
Method in brief: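 Relative activity was defined as the cleaved/total read fraction for a variant divided by the same fraction for the unmutated ribozyme. CPEB3 self-cleaving ribozyme libraries were made by rounds of error-prone PCR, barcoded, and transcribed in vitro with T7 RNA polymerase for 5 hours at 37°C, and cleavage ran through transcription plus a 15 min DNase I step before EDTA. Illumina sequencing of template-switched reverse transcripts gave the reads, and DNA sequencing mapped the barcodes. Averages come from three batches, using variants with at least 5 reads.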

Row | Variant | self-cleavage
1 | UAGCAAGGGGCCACAGCAGAAGCGUUCACGUCGCAGCCCCUGUCAGAUUCUGGUGAAUCUGCGAAUUCUGCUGUAUAUCUC [A3G G6A] | 0.59
2 | UAGCAUGGGGCCACAGCAGAAGCGUUCACGUCGCAGCCCCUGUCAGAUUCUGGUGAAUCUGCGAAUUCUGCUGUAUAUCUC [A3G G6U] | 0.57
3 | UAGCAGGGGGCCACAGCAGAAGCGUUCACGUCGCAGCCCCUGUCAGAUUCUGAUGAAUCUGCGAAUUCUGCUGUAUAUCUC [A3G G53A] | 1.02
4 | UAGCAGGGGGCCACAGCAGAAGCGUUCACGUCGCAGCCCCUGUCAGAUUCUGCUGAAUCUGCGAAUUCUGCUGUAUAUCUC [A3G G53C] | 1.13
5 | UAGCAGGGGGCCACAGCAGAAGCGUUCACGUCGCAGCCCCUGUCAGAUUCUGGUUAAUCUGCGAAUUCUGCUGUAUAUCUC [A3G G55U] | 1.12
6 | UAGCAGGGGGCCACAGCAGAAGCGUUCACGUCGCAGCCCCUGUCAGAUUCUGGUGAAUCUGCGAAUUCUACUGUAUAUCUC [A3G G70A] | 0.69
7 | UAGCAGGGGGCCACAGCAGAAGCGUUCACGUCGCAGCCCCUGUCAGAUUCUUGUGAAUCUGCGAAUUCUGCUGUAUAUCUC [A3G G52U] | 1.14
8 | UAGCAGGGGGCCACAGCAGAAGCGUUCACGUCGCAGCCCCUGUCAGAUUCUAGUGAAUCUGCGAAUUCUGCUGUAUAUCUC [A3G G52A] | 1.14
9 | UAGCAGGGGCCCACAGCAGAAGCGUUCACGUCGCAGCCCCUGUCAGAUUCUGGUGAAUCUGCGAAUUCUGCUGUAUAUCUC [A3G G10C] | 0.35
10 | UAGCAGGGGACCACAGCAGAAGCGUUCACGUCGCAGCCCCUGUCAGAUUCUGGUGAAUCUGCGAAUUCUGCUGUAUAUCUC [A3G G10A] | 0.46
11 | UAGCAGGGGGCCACAGCAGAAGCGUUCACGUCGCAGCCCCUGUCAGAUUCUGGUGAAUUUGCGAAUUCUGCUGUAUAUCUC [A3G C59U] | 0.74
12 | UAGCAGGGGGCCACAGCAGAAGCGUUCACGUCGCAGCCCCUGUCAGAUUCUGGUGAAUAUGCGAAUUCUGCUGUAUAUCUC [A3G C59A] | 0.62
13 | UAGCAGGGGGCCACAGCAUAAGCGUUCACGUCGCAGCCCCUGUCAGAUUCUGGUGAAUCUGCGAAUUCUGCUGUAUAUCUC [A3G G19U] | 0.41
14 | UAGCAGGGGGCCACAGCAGAAGCGUUCACGUCGCAGCCCCUGUCAAAUUCUGGUGAAUCUGCGAAUUCUGCUGUAUAUCUC [A3G G46A] | 0.13
15 | UAGCAGGGGGCCACAGCAGAAGCGUUCACGUCGCAGCCCCUGUCACAUUCUGGUGAAUCUGCGAAUUCUGCUGUAUAUCUC [A3G G46C] | 0.39
16 | UAGCAGGGGGCCACAGCAGAAGCGUUCACGUCACAGCCCCUGUCAGAUUCUGGUGAAUCUGCGAAUUCUGCUGUAUAUCUC [A3G G33A] | 0.38
17 | UAGCAGGGGGCCACAGCAGAAGCGUUCACGUCUCAGCCCCUGUCAGAUUCUGGUGAAUCUGCGAAUUCUGCUGUAUAUCUC [A3G G33U] | 0.11

Row | Variant | self-cleavage
18 | UAGCAGGGGGCCACAGCAGAAGCGUUCACGUCCCAGCCCCUGUCAGAUUCUGGUGAAUCUGCGAAUUCUGCUGUAUAUCUC [A3G G33C] | 0.31
19 | UAGCAGGGGGCCACAGCAGAAGCGUUCACGUCGCAGCCCCUGUAAGAUUCUGGUGAAUCUGCGAAUUCUGCUGUAUAUCUC [A3G C44A] | 0.42
20 | UAGCAGGGCGCCACAGCAGAAGCGUUCACGUCGCAGCCCCUGUCAGAUUCUGGUGAAUCUGCGAAUUCUGCUGUAUAUCUC [A3G G9C] | 0.6
21 | UAGCAGGGAGCCACAGCAGAAGCGUUCACGUCGCAGCCCCUGUCAGAUUCUGGUGAAUCUGCGAAUUCUGCUGUAUAUCUC [A3G G9A] | 0.53
22 | UAGCAGGGUGCCACAGCAGAAGCGUUCACGUCGCAGCCCCUGUCAGAUUCUGGUGAAUCUGCGAAUUCUGCUGUAUAUCUC [A3G G9U] | 0.34
23 | UAGCAGGGGGCCACAUCAGAAGCGUUCACGUCGCAGCCCCUGUCAGAUUCUGGUGAAUCUGCGAAUUCUGCUGUAUAUCUC [A3G G16U] | 0.62
24 | UAGCAGGGGGCCACACCAGAAGCGUUCACGUCGCAGCCCCUGUCAGAUUCUGGUGAAUCUGCGAAUUCUGCUGUAUAUCUC [A3G G16C] | 0.47
25 | UAGCAGGGGGCCACAACAGAAGCGUUCACGUCGCAGCCCCUGUCAGAUUCUGGUGAAUCUGCGAAUUCUGCUGUAUAUCUC [A3G G16A] | 0.38
26 | UAGCAGGGGGCCACAGCAGAAGCGUUCACGUCGCAGUCCCUGUCAGAUUCUGGUGAAUCUGCGAAUUCUGCUGUAUAUCUC [A3G C37U] | 0.85
27 | UAGCAGGGGGCCACAGCAGAAGCGUUCACGUCGCAGACCCUGUCAGAUUCUGGUGAAUCUGCGAAUUCUGCUGUAUAUCUC [A3G C37A] | 0.36
28 | UAGCAGGGGGCCACAGCAGAAGCGUUCACGUCGCAGCUCCUGUCAGAUUCUGGUGAAUCUGCGAAUUCUGCUGUAUAUCUC [A3G C38U] | 0.83
29 | UAGCAGGGGGCCACAGCAGAAGCGUUCACGUCGCAGCGCCUGUCAGAUUCUGGUGAAUCUGCGAAUUCUGCUGUAUAUCUC [A3G C38G] | 1.02
30 | UAGCAGGGGGCCACAGCAGAAGCGUUCACGUCGCAGCCGCUGUCAGAUUCUGGUGAAUCUGCGAAUUCUGCUGUAUAUCUC [A3G C39G] | 0.34
31 | UAGCAGGGGGCCACAGCAGAAGCGUUCACGUCGCAGCCACUGUCAGAUUCUGGUGAAUCUGCGAAUUCUGCUGUAUAUCUC [A3G C39A] | 0.05
32 | UAGCAGGGGGCCACAGCAGAAGCGUUCACGUCGCAGCCUCUGUCAGAUUCUGGUGAAUCUGCGAAUUCUGCUGUAUAUCUC [A3G C39U] | 0.64
33 | UAGCAGGGGGCCACAGCAGAAGCGUUCACGUCGCAUCCCCUGUCAGAUUCUGGUGAAUCUGCGAAUUCUGCUGUAUAUCUC [A3G G36U] | 0.26
34 | UAGCAGGGGGCCACAGCAGAAGCGUUCACGUCGCAACCCCUGUCAGAUUCUGGUGAAUCUGCGAAUUCUGCUGUAUAUCUC [A3G G36A] | 0.2
